This note sets out measurements from article PMC3869383.

The target of the first test is recombinant base variant NT2 (C-terminal tail of Rpt2 truncated) (S. cerevisiae) (UniProt P33299). Description: ATPase-repression titration.
Turning to “20S core particle purified from S. cerevisiae (from UniProt P22141 1-198) (complex)”, the fold lower affinity than wild-type base came to 1.3 fold.

For the next test, the target named is recombinant base variant NT5 (C-terminal tail of Rpt5 truncated) (S. cerevisiae) (UniProt P33299). The test is described as follows: ATPase-repression titration.
As for “20S core particle purified from S. cerevisiae (from UniProt P22141 1-198) (complex)”, the fold lower affinity than wild-type base stood at 5.6 fold.

The target of the next test is 20S core particle purified from S. cerevisiae (S. cerevisiae (endogenous in yeast)) (UniProt P22141). Description: peptidase-stimulation.
Usually Kd stands for the concentration at which binding is half-saturated. As to “recombinant base variant YA2 (pore-1 loop YA in Rpt2) (from UniProt P33299;P40327;P33298;P53549;P33297;Q01939;P38764;P32565;O13563) (complex)”, the equilibrium dissociation constant (Kd) came out at 138 nM.

Another test has the same target.
Assay: not given
In turn, “recombinant base variant DN4 (pore-2 loop DN in Rpt4) (from UniProt P33299;P40327;P33298;P53549;P33297;Q01939;P38764;P32565;O13563) (complex)” had a peptidase stimulation, % of WT base of 192 % WT.
In turn, “recombinant base variant DN6 (pore-2 loop DN in Rpt6) (from UniProt P33299;P40327;P33298;P53549;P33297;Q01939;P38764;P32565;O13563) (complex)” returned a peptidase stimulation, % of WT base of 84 % WT.
Still for that read-out and setting: under “recombinant base variant EN2 (pore-2 loop EN in Rpt2) (from UniProt P33299;P40327;P33298;P53549;P33297;Q01939;P38764;P32565;O13563) (complex)” stands 110 % WT; under “recombinant base variant EQ4 (Walker-B EQ in Rpt4) (from UniProt P33299;P40327;P33298;P53549;P33297;Q01939;P38764;P32565;O13563) (complex)”, 95 % WT.
The same measure, in the same setting: under “recombinant base variant EQ5 (Walker-B EQ in Rpt5) (from UniProt P33299;P40327;P33298;P53549;P33297;Q01939;P38764;P32565;O13563) (complex)” stands 118 % WT; under “recombinant base variant KS2 (Walker-A KS in Rpt2) (from UniProt P33299;P40327;P33298;P53549;P33297;Q01939;P38764;P32565;O13563) (complex)”, 10 % WT; under “recombinant base variant KS3 (Walker-A KS in Rpt3) (from UniProt P33299;P40327;P33298;P53549;P33297;Q01939;P38764;P32565;O13563) (complex)”, 58 % WT.
Take “recombinant base variant KS5 (Walker-A KS in Rpt5) (from UniProt P33299;P40327;P33298;P53549;P33297;Q01939;P38764;P32565;O13563) (complex)”: the peptidase stimulation, % of WT base amounted to 59 % WT.
On the same count and under the same terms, the same measure for “recombinant base variant KS6 (Walker-A KS in Rpt6) (from UniProt P33299;P40327;P33298;P53549;P33297;Q01939;P38764;P32565;O13563) (complex)”: 54 % WT; for “recombinant base variant NT2 (C-terminal tail of Rpt2 truncated) (from UniProt P33299;P40327;P33298;P53549;P33297;Q01939;P38764;P32565;O13563) (complex)”: 10 % WT.
In the case of “recombinant base variant NT3 (C-terminal tail of Rpt3 truncated) (from UniProt P33299;P40327;P33298;P53549;P33297;Q01939;P38764;P32565;O13563) (complex)”, the peptidase stimulation, % of WT base was 5 % WT.
With “recombinant base variant NT4 (C-terminal tail of Rpt4 truncated) (from UniProt P33299;P40327;P33298;P53549;P33297;Q01939;P38764;P32565;O13563) (complex)”, the peptidase stimulation, % of WT base was 108 % WT.
Same read-out and setting: the same measure for “recombinant base variant NT5 (C-terminal tail of Rpt5 truncated) (from UniProt P33299;P40327;P33298;P53549;P33297;Q01939;P38764;P32565;O13563) (complex)”: 7 % WT; for “recombinant base variant YA1 (pore-1 loop YA in Rpt1) (from UniProt P33299;P40327;P33298;P53549;P33297;Q01939;P38764;P32565;O13563) (complex)”: 84 % WT.
On the same count and under the same terms, the same measure for “recombinant base variant YA2 (pore-1 loop YA in Rpt2) (from UniProt P33299;P40327;P33298;P53549;P33297;Q01939;P38764;P32565;O13563) (complex)”: 38 % WT; for “recombinant base variant with the Walker-B EQ mutation in all six Rpt subunits (from UniProt P33299;P40327;P33298;P53549;P33297;Q01939;P38764;P32565;O13563) (complex)”: 110 % WT.
